{"source": "paper PMC10184537", "about": "(ACS Nano, 2023)", "molecular_target": "murine urokinase-type plasminogen activator (murine, UniProt P06869)", "sequence (P06869 21-433)": "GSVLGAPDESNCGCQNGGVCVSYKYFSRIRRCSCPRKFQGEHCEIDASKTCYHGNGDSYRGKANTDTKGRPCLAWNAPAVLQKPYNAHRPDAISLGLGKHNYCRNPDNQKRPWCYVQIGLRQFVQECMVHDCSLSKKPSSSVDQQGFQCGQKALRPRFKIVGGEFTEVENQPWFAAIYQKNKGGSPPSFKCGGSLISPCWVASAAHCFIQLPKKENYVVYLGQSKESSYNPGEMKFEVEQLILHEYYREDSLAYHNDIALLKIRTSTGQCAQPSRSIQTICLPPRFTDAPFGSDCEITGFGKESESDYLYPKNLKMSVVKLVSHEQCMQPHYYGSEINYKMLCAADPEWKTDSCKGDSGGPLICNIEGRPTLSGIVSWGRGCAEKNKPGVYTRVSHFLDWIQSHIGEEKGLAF", "assay": "[…]"}
{"binder": "nb22 nanobody (VHH) VHH: QVQLQESGGGLVQAGGSLRLSCAASGRTFSSYVMGWFRQAPGKEREFVAAISWSGGSTNYADSVKGRFTISRDNAKNTVYLQMNSLKPEDTAVYYCAADLASSRDVSSWYWGQGTQVTVSS", "values": [{"measurement": "binding result", "value": "binds"}]}
